Results from patent publication US20210032315A1 (VIVORYON THERAPEUTICS N V, published 2021).
Read-outs that look alike come from different tables or passages of the source.

T1: full length human CD32A (human, UniProt P12318 34-317)
T1 construct: whole, on cells; also called Fc gamma receptor
T1 sequence (looked up): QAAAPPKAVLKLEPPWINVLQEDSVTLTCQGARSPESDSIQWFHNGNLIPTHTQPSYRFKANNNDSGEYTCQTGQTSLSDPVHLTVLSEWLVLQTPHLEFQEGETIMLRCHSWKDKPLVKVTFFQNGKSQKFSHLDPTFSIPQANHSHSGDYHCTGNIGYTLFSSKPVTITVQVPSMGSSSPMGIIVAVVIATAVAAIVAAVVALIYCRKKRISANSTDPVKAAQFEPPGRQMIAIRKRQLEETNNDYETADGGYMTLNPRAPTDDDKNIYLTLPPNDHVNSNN

T2: full length human CD32B (human, UniProt P31994 43-310)
T2 construct: whole, on cells; also called Fc gamma receptor
T2 sequence (looked up): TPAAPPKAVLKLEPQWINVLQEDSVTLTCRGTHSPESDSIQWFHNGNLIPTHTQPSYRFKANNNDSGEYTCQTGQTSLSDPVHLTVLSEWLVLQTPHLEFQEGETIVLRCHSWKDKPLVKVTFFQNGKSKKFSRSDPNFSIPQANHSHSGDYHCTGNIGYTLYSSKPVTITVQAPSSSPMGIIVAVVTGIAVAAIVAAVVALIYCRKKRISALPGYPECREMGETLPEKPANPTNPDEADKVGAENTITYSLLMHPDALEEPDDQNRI

T3: Aβ (1-18) (human)
T3 peptide: DAEFRHDSGYEVHHQKLV

T4: Aβ (4-18) (human)
T4 peptide: FRHDSGYEVHHQKLV


How the values were obtained:
full length human CD32A = biological target: T1, full length human CD32A; experiment: FACS on CHO cells stably expressing the receptor, 7 concentrations
Description: (§1) The binding was measured in a FACS based bioassay to Chinese Hamster Ovary (CHO) cells stably expressing full length human CD16A, CD32A, CD32B, or CD64. Both antibodies were incubated with each cell line at 7 different concentrations for one hour followed by washing. Receptor-bound H6 or H67 was detected with fluorochrome conjugated-anti-Fab′. Binding capacity was measured by FACS and the Kd and Bmax were calculated by non-linear regression.

full length human CD64 = biological target: T5, full length human CD64 (human, UniProt P12314 16-374); experiment: as above
T5 construct: whole, on cells; also called Fc gamma receptor
Description: as §1

full length human CD32B = biological target: T2, full length human CD32B; experiment: as above
Description: as §1

full length human CD16A = biological target: T6, full length human CD16A (human, UniProt P08637 17-254); experiment: as above
T6 construct: whole, on cells; also called Fc gamma receptor
Description: as §1

[1] = biological target: T7, Fibrils of Aβ (1-42) peptides (human); experiment: SPR, fibrils captured on the chip, antibody as analyte, single cycle kinetics
T7 construct: Fibrillar aggregate of Aβ 1-42, made at pH 8.7 and 37 °C and captured on the sensor chip (about 100 RU); also called Aβ (1-42) fibrils
Description: (§2) The obtained sensorgrams were evaluated using five consecutive concentrations (starting with the first injection showing binding) and the Single Cycle Kinetics model with a global fit of Rmax and baseline drift and local fits of the bulk effect of every injection.

[2] = biological target: T8, Oligomers of Aβ (1-42) peptides (human); experiment: SPR, oligomers captured on the chip, antibody as analyte, single cycle kinetics
T8 construct: Oligomeric Aβ 1-42, made by the ACUMEN protocol in Ham's F12 at 4 °C and captured on the sensor chip (about 300 RU); also called Aβ (1-42) oligomers
Description: Oligomers of Aβ (1-42) peptides were generated according to the ACUMEN protocol in Ham's F12 medium overnight at 4° C. and separated from aggregated Aβ by centrifugation. Afterwards the oligomers were aspirated in 20 μl, diluted in 60 μl running buffer and loaded onto a sensor chip by use of capture antibodies with a flow rate of 1 μl/min. Then, the system was washed overnight with 100 μl/min getting a stable baseline.
as §2

Aβ (1-18) = biological target: T3, Aβ (1-18); experiment: SPR, antibody captured by anti-human antibody, peptide as analyte
Aβ (4-18) [3] = biological target: T4, Aβ (4-18); experiment: SPR, antibody captured by anti-human antibody, peptide as analyte, steady-state model
Aβ (4-18) [4] = biological target: T4, Aβ (4-18); experiment: as above

T7 sequence (peptide, as listed by the source): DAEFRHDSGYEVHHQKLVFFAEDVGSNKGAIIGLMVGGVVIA
T8 sequence (peptide, as listed by the source): as above
T5 sequence (P12314 16-374): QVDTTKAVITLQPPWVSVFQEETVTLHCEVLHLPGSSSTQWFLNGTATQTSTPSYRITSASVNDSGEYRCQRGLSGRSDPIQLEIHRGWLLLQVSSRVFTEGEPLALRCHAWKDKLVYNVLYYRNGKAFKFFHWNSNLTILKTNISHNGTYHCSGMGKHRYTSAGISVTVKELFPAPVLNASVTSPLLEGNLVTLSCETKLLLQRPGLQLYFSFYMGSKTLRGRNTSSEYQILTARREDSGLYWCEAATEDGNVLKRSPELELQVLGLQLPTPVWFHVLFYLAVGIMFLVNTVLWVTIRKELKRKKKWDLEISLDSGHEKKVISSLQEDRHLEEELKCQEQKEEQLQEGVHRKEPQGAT
T6 sequence (P08637 17-254): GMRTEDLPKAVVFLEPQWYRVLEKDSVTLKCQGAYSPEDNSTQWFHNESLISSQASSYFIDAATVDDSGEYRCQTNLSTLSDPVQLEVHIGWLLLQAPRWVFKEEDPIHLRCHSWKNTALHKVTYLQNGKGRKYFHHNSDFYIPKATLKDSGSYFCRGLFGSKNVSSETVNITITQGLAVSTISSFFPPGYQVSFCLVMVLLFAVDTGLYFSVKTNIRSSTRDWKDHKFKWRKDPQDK

Row | binding result (full length human CD32A) | binding result (full length human CD64) | binding result (full length human CD32B) | binding result (full length human CD16A) | Kd [1] [nM] | koff [1] [s⁻¹] | kon [1] [M⁻¹ s⁻¹] | Kd [2] [nM] | koff [2] [s⁻¹] | kon [2] [M⁻¹ s⁻¹] | Kd (Aβ (1-18)) [nM] | Kd (Aβ (4-18) [3]) [nM] | Kd (Aβ (4-18) [4]) [nM] | Binder
1 | binds | binds | binds | binds |  |  |  |  |  |  |  |  |  | antibody comprising the wild-type heavy chain of SEQ ID NO: 19 (antibody, human IgG1, kappa, also called antibody according to A)) heavy: not shown light: DVVMTQSPLSLPVTLGQPASISCKSSQSLLYSDGKTYLNWFQQRPGQSPRRLTYLVSKLDSGVPDRFSGSGSGTDFTLKISRVEAEDVGVYYCVQGTHFPFTFGGGTKVEIKRTVAAPSVFIFPPSDEQLKSGTASVVCLLNNFYPREAKVQWKVDNALQSGNSQESVTEQDSKDSTYSLSSTLTLSKADYEKHKVYACEVTHQGLSSPVTKSFNRGEC
2 | binds | binds | binds | binds |  |  |  |  |  |  |  |  |  | K324A mutant variant (comprising the heavy chain of SEQ ID NO: 18) (antibody, human IgG1, kappa, also called antibody according to B)) heavy: not shown light: DVVMTQSPLSLPVTLGQPASISCKSSQSLLYSDGKTYLNWFQQRPGQSPRRLTYLVSKLDSGVPDRFSGSGSGTDFTLKISRVEAEDVGVYYCVQGTHFPFTFGGGTKVEIKRTVAAPSVFIFPPSDEQLKSGTASVVCLLNNFYPREAKVQWKVDNALQSGNSQESVTEQDSKDSTYSLSSTLTLSKADYEKHKVYACEVTHQGLSSPVTKSFNRGEC
3 |  |  |  |  | 0.0659 | 6.53e-05 | 990000 | 7.61 | 0.000142 | 18600 |  |  |  | parental antibody clone #6 disclosed in WO 2017/009459 (antibody, V domains shown, also called parental clone #6 variant) VH: QVQLVQSGAEVKKSGASVKVSCKASGYSFTGHTMNWVRQAPGQGLEWMGLINPSNGVTRYNQKFQGRVTITRDTSTTTVHMELTSLTSEDTATYYCTREAKREWDETYWGQGTLVTVSS VL: DVVMTQSPLSLPVTLGQPASISCKSSQSLLYSDGKTYLNWFQQRPGQSPRRLTYLVSKLDSGVPDRFSGSGSGTDFTLKISRVEAEDVGVYYCVQGTHFPFTFGGGTKVEIK
4 |  |  |  |  | 1.67 |  |  | 269 |  |  | > 10000 | 28300 | > 10000 | humanized and de-immunized antibody clone #6 of the present invention (antibody, V domains shown, It was captured by a polyclonal anti-human antibody, so it has human constant regions) VH: QVQLVQSGAEVVKPGASVKVSCKASGYSFTGHTMNWVRQAPGQGLEWMGLINPSDGVTRYNQKFQGRVTITRDTSTTTVHMELTSLTSEDTATYYCTREAKREWDETYWGQGTLVTVSS VL: DVVMTQSPLSLPVTLGQPASISCKSSQSLLYSDGKTYLNWFQQRPGQSPRRLTYLVSKLDSGVPDRFSGSGSGTDFTLKISRVEAEDVGVYYCVQGTHFPFTFGGGTKVEIK
